# Results reported in the RNAGym collection of RNA variant scans (doi:10.1093/molbev/msab373).
# B1: Azoarcus group I ribozyme (parent)
# chain: GUGCCUUGCGCCGGGAAACCACGCAAGGGAUGGUGUCAAAUUCGGCGAAACCUAAGCGCCCGCCCGGGCGUAUGGCAACGCCGAGCCAAGCUUCGGCGCCUGCGCCGAUGAAGGUGUAGAGACUAGACGGCACCCACCUAAGGCAAACGCUAUGGUGAAGGCAUAGUCCAGGGAGUGGCGAAAGUCACACAAACCGG
# Variants of: B1
# Assay: reverse-splicing fitness (ratio to wild type); higher = more active; in vitro selection; Mg2+ level not given
# Method in brief: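 An in vitro group I ribozyme library with randomized positions was T7-transcribed and gel-purified. In triplicate, 10 pmol RNA in EPPS pH 7.5 was reacted with 50 pmoles of a 30-nt RNA substrate for 1 h at 37 °C across several added MgCl2 levels (1–48 mM), then stopped with EDTA. Products were reverse transcribed from a substrate-complementary primer, PCR-amplified and sequenced (HiSeq 4000). Fitness is a variant's read proportion after selection over that before, normalised to wild type.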
row,Variant,reverse-splicing fitness
1,A120C A145U C169A U176C,0.0127
2,A120C A145U C169A U176A,0.01
3,A120C A145U C169A U176G,0.00466
4,A120C A145G C150U C169A U176A,0.0167
5,A120C A145G C150U C169A U176G,0.00444
6,A120C A145G C150U C169A U176C,0.0196
7,A120C A145G C150U C169G U176C,0.0182
8,A120C A145G C150U C169G U176G,0.004
9,A120C A145G C150U C169G U176A,0.014
10,A120C A145G C150A C169A U176G,0.00483
11,A120C A145G C150A C169A U176A,0.0168
12,A120C A145G C150A C169A U176C,0.0217
13,A120C A145G C150A C169U U176C,0.0824
14,A120C A145G C150A C169U U176G,0.00697
15,A120C A145G C150A C169U U176A,0.0678
16,A120C A145U,0.886
17,A120C A145G,0.772
18,A120C A145U C150G C169U U176G,0.00515
19,A120C A145U C150G C169U U176A,0.0184
20,A120C A145U C150G C169U U176C,0.0535
21,A120C A145U C150A C169A U176C,0.00632
22,A120C A145U C150A C169A U176G,0.00377
23,A120C A145U C150A C169A U176A,0.0124
24,A120C A145G C150U U176C,0.566

row,Variant,reverse-splicing fitness
1,A120C A145G C150U U176A,0.626
2,A120C A145G C150U U176G,0.179
3,A120C A145U C169U U176A,0.143
4,A120C A145U C169U U176C,0.187
5,A120C A145U C169U U176G,0.0184
6,A120C A145C C150U U176G,0.137
7,A120C A145C C150U U176C,0.317
8,A120C A145C C150U U176A,0.398
9,A120C C150A C169U U176C,0.0627
10,A120C C150A C169U U176A,0.0533
11,A120C C150A C169U U176G,0.00663
12,A120C C150A U176C,0.195
13,A120C C150A U176G,0.0764
14,A120C C150A U176A,0.184
15,A120C A145U C150U C169A U176C,0.0111
16,A120C A145U C150U C169A U176G,0.00474
17,A120C A145U C150U C169A U176A,0.0137
18,A120C A145G C169G U176G,0.00382
19,A120C A145G C169G U176A,0.0155
20,A120C A145G C169G U176C,0.022
21,A120C A145G C150A C169G U176A,0.017
22,A120C A145G C150A C169G U176C,0.0234
23,A120C A145G C150A C169G U176G,0.00453
24,A120C A145U C169A,0.032

row,Variant,reverse-splicing fitness
1,A120C A145U C169G,0.0257
2,A120C A145U C169U,0.441
3,A120C A145U C150G U176A,0.137
4,A120C A145U C150G U176C,0.156
5,A120C A145U C150G U176G,0.0206
6,A120C A145U C150U C169U,0.329
7,A120C A145U C150U C169A,0.0252
8,A120C A145U C150U C169G,0.0196
9,A120C A145U C150A C169U U176A,0.0459
10,A120C A145U C150A C169U U176C,0.0562
11,A120C A145U C150A C169U U176G,0.0079
12,A120C A145U C150G C169A,0.00905
13,A120C A145U C150G C169U,0.107
14,A120C A145U C150G C169G,0.00781
15,A120C A145U C150A C169G,0.00666
16,A120C A145U C150A C169A,0.00801
17,A120C A145U C150A C169U,0.0832
18,A120C A145G U176C,0.652
19,A120C A145G U176A,0.707
20,A120C A145G U176G,0.212
21,A120C A145C C169U U176C,0.177
22,A120C A145C C169U U176A,0.143
23,A120C A145C C169U U176G,0.0155
24,A120C A145U C150U U176A,0.652

row,Variant,reverse-splicing fitness
1,A120C A145U C150U U176C,0.562
2,A120C A145U C150U U176G,0.2
3,A120C A145G C150U C169U U176A,0.125
4,A120C A145G C150U C169U U176C,0.186
5,A120C A145G C150U C169U U176G,0.0092
6,A120C A145C C169U,0.431
7,A120C A145C C169A,0.0312
8,A120C A145C C169G,0.0239
9,A120C C150A C169A,0.0141
10,A120C C150A C169U,0.098
11,A120C C150A C169G,0.00864
12,A120C A145G C150A U176C,0.271
13,A120C A145G C150A U176A,0.263
14,A120C A145G C150A U176G,0.0729
15,A120C C150G C169A,0.0115
16,A120C A145G C150G C169A U176A,0.0131
17,A120C A145G C150G C169A U176G,0.00789
18,A120C A145G C150G C169A U176C,0.0132
19,A120C A145U C150A,0.215
20,A120C A145U C150G,0.262
21,A120C A145U C150U,0.744
22,A120C C150A,0.241
23,A120C C150G,0.187
24,A120C A145C C169A U176C,0.00838

row,Variant,reverse-splicing fitness
1,A120C A145C C169A U176G,0.00331
2,A120C A145C C169A U176A,0.00918
3,A120C A145G C150U C169G,0.0232
4,A120C A145G C150U C169U,0.432
5,A120C A145G C150U C169A,0.0324
6,A120C A145G C169U U176C,0.185
7,A120C A145G C169U U176A,0.153
8,A120C A145G C169U U176G,0.015
9,A120C A145G C150G C169U,0.108
10,A120C A145G C150G C169A,0.0119
11,A120C A145G C150G C169G,0.00987
12,A120C A145G C150U,0.781
13,A120C A145G C150G,0.234
14,A120C A145G C150A,0.32
15,A120C A145G C150G U176G,0.019
16,A120C A145G C150G U176A,0.0905
17,A120C A145G C150G U176C,0.146
18,A120C A145G C150G C169G U176A,0.00996
19,A120C A145G C150G C169G U176C,0.0135
20,A120C A145G C150G C169G U176G,0.00533
21,A120C A145U C150U C169U U176A,0.131
22,A120C A145U C150U C169U U176G,0.0113
23,A120C A145U C150U C169U U176C,0.16
24,A120C A145C C169G U176G,0.00338

row,Variant,reverse-splicing fitness
1,A120C A145C C169G U176A,0.0163
2,A120C A145C C169G U176C,0.0103
3,A120C A145C C150U C169U U176G,0.00874
4,A120C A145C C150U C169U U176A,0.0792
5,A120C A145C C150U C169U U176C,0.0863
6,A120C A145G C150G C169U U176G,0.00611
7,A120C A145G C150G C169U U176C,0.0406
8,A120C A145G C150G C169U U176A,0.0149
9,A120C A145U C150A U176C,0.179
10,A120C A145U C150A U176G,0.0668
11,A120C A145U C150A U176A,0.191
12,A120C C150A C169A U176G,0.00451
13,A120C C150A C169A U176C,0.011
14,A120C C150A C169A U176A,0.0193
15,A120C A145U C150G C169A U176G,0.0044
16,A120C A145U C150G C169A U176C,0.00821
17,A120C A145U C150G C169A U176A,0.0113
18,A120C A145U C150U C169G U176A,0.0111
19,A120C A145U C150U C169G U176G,0.00463
20,A120C A145U C150U C169G U176C,0.0117
21,A120C A145G C169G,0.0256
22,A120C A145G C169U,0.47
23,A120C A145G C169A,0.0366
24,A120C C150A C169G U176C,0.0156

row,Variant,reverse-splicing fitness
1,A120C C150A C169G U176A,0.0161
2,A120C C150A C169G U176G,0.00418
3,A120C A145C U176A,0.693
4,A120C A145C U176G,0.266
5,A120C A145C U176C,0.574
6,A120C A145U C150A C169G U176C,0.0105
7,A120C A145U C150A C169G U176A,0.00974
8,A120C A145U C150A C169G U176G,0.00376
9,A120C A145U U176G,0.318
10,A120C A145U U176A,0.726
11,A120C A145U U176C,0.7
12,A120C A145U C150G C169G U176C,0.00537
13,A120C A145U C150G C169G U176A,0.00633
14,A120C A145U C150G C169G U176G,0.00367
15,A120C A145G C169A U176A,0.0215
16,A120C A145G C169A U176C,0.024
17,A120C A145G C169A U176G,0.00471
18,A120C A145G C150A C169A,0.0153
19,A120C A145G C150A C169G,0.0107
20,A120C A145G C150A C169U,0.134
21,A120C A145U C169G U176C,0.0112
22,A120C A145U C169G U176A,0.00826
23,A120C A145U C169G U176G,0.0038
